The results in this text go back to publication PMC10891947, “Gene Expression of Ethanol and Acetate Metabolic Pathways in the Acinetobacter baumannii EmaSR Regulon” (Microorganisms, 2024).

Substrate in data set [1]: CC(=O)O
The data set is described as follows: purified protein. Particulars: pH 8.0 potassium phosphate buffer, co-substrate succinyl-CoA, one experiment.

Substrate in data set [2]: CC(C)(COP(=O)(O)OP(=O)(O)OC[C@H]1O[C@@H](n2cnc3c(N)ncnc32)[C@H](O)[C@@H]1OP(=O)(O)O)[C@@H](O)C(=O)NCCC(=O)NCCSC(=O)CCC(=O)O
The data set is described as follows: purified protein. The format is biochemical, Acinetobacter baumannii. As to conditions: pH 8.0 potassium phosphate buffer, co-substrate acetate, one experiment.

Where “and” joins values, the source holds several entries; their conditions need not be identical. Identical values can stand only once.

B1: DJ41_2796 (Acinetobacter baumannii ATCC 19606 = CIP 70.34 = JCM 6841) (protein)
chain: MSLSRIRLASLHDKVISAEQAAQFIENGMTVGMSGFTRAGEAKAVPQALVELAKKNPLKITLITGASLGNDLDKQLTEAGVLSRRMPFQVDNTLRRAINNGEVMFIDQHLSETVEQMRNQQLKRPDVAVIEAIAITEDGGIIPTTSVGNSASFAIFAEKVIVEINTSLSESFEGLHDIYIPTYRPTRTPIPLTKVDERIGTTAIQIDPSRIVGIVFNDTHDSPSTVTPPDDETQGIANHLIAFFEKEVAEGRLPKNLGPLQAGIGSIANAVLTGLKDSNFEDLIMYSEVLQDCTFELIDAGKMKFASGSSITLSAKCGEKVFGNIEAYKDKLVLRPQEISNHPELVRRLGIIGINTALEFDIYGNVNSTHVCGTKMMNGIGGSGDFARNAHLAIFVTKSIAKGGDISSIVPMVSHVDHSEHDVDILVTEQGLADLRGLAPRERARAIIDNCVHPLYRDALNDYFDRACAKGGHTPHLLREALSWHANFEETGQMLQPTPVAKSA
On to B1, for which, in data set [1], the Michaelis-Menten constant (Km) is 14.74 mM and 39 mM; the Vmax was 0.0335 µmol/min and 0.0415 µmol/min; the kcat is 6.7 s⁻¹ and 8.31 s⁻¹; the kcat/Km is 455 M⁻¹ s⁻¹ and 213 M⁻¹ s⁻¹. In data set [2], the Km is reported as 0.3418 mM, the Vmax turned out to be 0.035 µmol/min, the kcat turned out to be 6.99 s⁻¹ and the kcat/Km is 20500 M⁻¹ s⁻¹.

In general, Km refers to the substrate concentration at which the rate is half of its maximum. Broadly, the Vmax is the rate approached at saturating substrate. As usually defined, the kcat is the number of substrate molecules converted per active site and unit of time at saturation. As a reminder, the kcat/Km is the turnover number divided by the Michaelis constant.
